Assay results published in US11365402B2, “Internal protein tags” (Promega Corporation, priority 2014, dated 2022).

Tested on: Anti-VEGF antibody
Experiment: Target antibody driven NANOLUC bioluminescence complementation (NLpep114-VEGFA targets, NLpoly11S-protein G, anti-VEGF antibody)
Type: cell-based
Details: HEK293T cells
Excerpt: FIG. 6 depicts a schematic of how the assay components are used to screen for antibody binding to target protein by way of antibody driven NANOLUC bioluminescence complementation between NLpoly11S-fused protein G and internally tagged NLpep114 target protein. The Target, containing an internal pep114 tag, is expressed in mammalian cell culture with an IL6 signal peptide (SP). The SP directs the Target to the secretion pathway. The Target can be assayed in the media (+/−) cells. In the example, a purified preparation of the Large Bit (11S-protein G fusion protein) and Test Antibody are added directly to the mammalian cell culture. The protein G domain of the Large Bit binds to the Fc region of the Test Antibody between the Heavy Chain Constant Domains 2 and 3. If the Test Antibody binds to the Target, the Large and Small Bits can come together to form an active luminesent complex that is detected by furimazine.
NLpep114-target fusion construct DNA was diluted into carrier DNA (pGEM3Zf(−); Promega) at bug total DNA at a mass ratio of 1:10. DNA:FuGENE complexes were formed at a ratio of 1:3 (ug DNA/ul FuGENE), according to manufacturer's protocol (Promega). One part of the transfection complex was mixed with 20 parts (volume/volume) of HEK293T cells (ATCC) suspended at a density of 2×10^5 cells/ml in DMEM (Gibco)+10% FBS (Hyclone). Cells (50 ul/well) were dispensed into 96-well tissue culture plates and incubated in a humidified, 37° C./5% CO2 incubator for 18-24 hours.
HEK293T cells (ATCC) were transfected with three NLpep114-VEGFA DNAs as described above and incubated overnight. The cells were serum starved for 4 hours under the same conditions by replacing the media with an equal volume of (Gibco). NLpoly11S(15)pG in 1×PBS/0.1% BSA (Promega) was added (25 ul/well) to a final concentration of 0.5 ug/ml (12 nM). Anti-VEGF antibody (R&D Systems, #293) in 1×PBS/0.1% BSA (Promega) was added (25 ul/well) to a final concentration of 0-0.73 ug/ml (0-5.3 nM). After the addition of LCS Reagent (Promega, 100 ul/well, 10 μM final concentration), luciferase activity was measured using an Infinity F500 microtiter plate reader (Tecan).

B1: ATG-1915: Control Target with a terminal Small Bit: HALOTAG-VEGFA-165 with C-terminal NLpep114 tag (SEQ ID NO: 2577) (protein)
chain: MNSFSTSAFGPVAFSLGLLLVLPAAFPAPRAEIGTGFPFDPHYVEVLGERMHYVDVGPRDGTPVLFLHGNPTSSYVWRNIIPHVAPTHRCIAPDLIGMGKSDKPDLGYFFDDHVRFMDAFIEALGLEEVVLVIHDWGSALGFHWAKRNPERVKGIAFMEFIRPIPTWDEWPEFARETFQAFRTTDVGRKLIIDQNVFIEGTLPMGVVRPLTEVEMDHYREPFLNPVDREPLWRFPNELPIAGEPANIVALVEEYMDWLHQSPVPKLLFWGTPGVLIPPAEAARLAKSLPNCKAVDIGPGLNLLQEDNPDLIGSEIARWLSTLEISGEPTTEDLYFQSDNAPMAEGGGQNHHEVVKFMDVYQRSYCHPIETLVDIFQEYPDEIEYIFKPSCVPLMRCGGCCNDEGLECVPTEESNITMQIMRIKPHQGQHIGEMSFLQHNKCECRPKKDRARQENPCGPCSERRKHLFVQDPQTCKCSCKNTDSRCKARQLELNERTCRCDKPRRGSSGVTGYRLFEEIL
overall luminescence signal, compared among constructs (anti-VEGF antibody): highest signal
signal over background (increase in bioluminescence with antibody over assay components without antibody) (anti-VEGF antibody 0-0.73 ug/ml (0-5.3 nM), NLpoly11S-protein G 0.5 ug/ml (12 nM)): over 400 fold

B2: ATG-1917: Experimental Target with the Small Bit (NLpep114) between two large domains (SEQ ID NO: 2578) (protein)
chain: MNSFSTSAFGPVAFSLGLLLVLPAAFPAPRAEIGTGFPFDPHYVEVLGERMHYVDVGPRDGTPVLFLHGNPTSSYVWRNIIPHVAPTHRCIAPDLIGMGKSDKPDLGYFFDDHVRFMDAFIEALGLEEVVLVIHDWGSALGFHWAKRNPERVKGIAFMEFIRPIPTWDEWPEFARETFQAFRTTDVGRKLIIDQNVFIEGTLPMGVVRPLTEVEMDHYREPFLNPVDREPLWRFPNELPIAGEPANIVALVEEYMDWLHQSPVPKLLFWGTPGVLIPPAEAARLAKSLPNCKAVDIGPGLNLLQEDNPDLIGSEIARWLSTLEISGEPTTEDLYFQSDNVTGYRLFEEILGSSGAPMAEGGGQNHHEVVKFMDVYQRSYCHPIETLVDIFQEYPDEIEYIFKPSCVPLMRCGGCCNDEGLECVPTEESNITMQIMRIKPHQGQHIGEMSFLQHNKCECRPKKDRARQENPCGPCSERRKHLFVQDPQTCKCSCKNTDSRCKARQLELNERTCRCDKPRR
signal reduction relative to ATG-1915 (C-terminal NLpep114 tag) (anti-VEGF antibody): 5 fold

B3: ATG-1946: Experimental Target with the Small Bit between one large and one small domain (C-terminal FLAG) (SEQ ID NO: 2579) (protein)
chain: MNSFSTSAFGPVAFSLGLLLVLPAAFPAPRAEIGTGFPFDPHYVEVLGERMHYVDVGPRDGTPVLFLHGNPTSSYVWRNIIPHVAPTHRCIAPDLIGMGKSDKPDLGYFFDDHVRFMDAFIEALGLEEVVLVIHDWGSALGFHWAKRNPERVKGIAFMEFIRPIPTWDEWPEFARETFQAFRTTDVGRKLIIDQNVFIEGTLPMGVVRPLTEVEMDHYREPFLNPVDREPLWRFPNELPIAGEPANIVALVEEYMDWLHQSPVPKLLFWGTPGVLIPPAEAARLAKSLPNCKAVDIGPGLNLLQEDNPDLIGSEIARWLSTLEISGEPTTEDLYFQSDNAPMAEGGGQNHHEVVKFMDVYQRSYCHPIETLVDIFQEYPDEIEYIFKPSCVPLMRCGGCCNDEGLECVPTEESNITMQIMRIKPHQGQHIGEMSFLQHNKCECRPKKDRARQENPCGPCSERRKHLFVQDPQTCKCSCKNTDSRCKARQLELNERTCRCDKPRRGSSGVTGYRLFEEILGSDYKDDDDK
signal loss relative to ATG-1915 (C-terminal NLpep114 tag) (anti-VEGF antibody): 40%
